According to patent US20180325981A1 (published 2018):
Square brackets hold non-standard residues; d marks the D form. Nva = CCC[C@H](N)C(=O)O

T1: purified recombinant ADIPOR1 (A88) (UniProt Q96A54 89-375)
T1 construct: range 89-375; Expressed in SF9 cells by baculovirus, solubilised in DDM, purified on anti-Flag beads (eluted with Flag peptide) and by size exclusion as monomer; amine-coupled to a CM5 chip; also called adiponectin receptor 1; adiponectin receptor ADIPOR1; not shown: Flag tag at the N-terminus
T1 sequence: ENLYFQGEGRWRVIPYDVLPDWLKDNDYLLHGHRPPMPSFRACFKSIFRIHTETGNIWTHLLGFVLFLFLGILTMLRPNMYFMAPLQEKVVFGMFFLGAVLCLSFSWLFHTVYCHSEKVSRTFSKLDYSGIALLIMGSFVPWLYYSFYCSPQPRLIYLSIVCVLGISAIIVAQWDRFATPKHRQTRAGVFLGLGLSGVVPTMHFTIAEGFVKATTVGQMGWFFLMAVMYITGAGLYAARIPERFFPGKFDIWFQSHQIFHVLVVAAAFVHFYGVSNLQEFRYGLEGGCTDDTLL


Experiments:
[1] = biological target: T1, purified recombinant ADIPOR1 (A88); assay: SPR; recombinant ADIPOR1 amine-coupled to a CM5 chip, peptide injected
Procedure: (§1) In order to analyze the binding force between peptide and ADIPOR1, a purified recombinant ADIPOR1 (A88) was bound to a CM5 chip with 3000 RU or higher through amine coupling. Peptide was diluted with a running buffer (0.1% DDM, 0.005% CHS, 10 mM HEPES, 150 mM NaCl with pH 7.4) and injected into a SPR instrument at various concentrations to analyze the binding force. The affinity value was calculated using the affinity fitting or kinetics fitting method. In order to analyze peptide solubility, peptide stocks were prepared with DMSO, diluted in an appropriate buffer, and then undissolved precipitates were removed. The peptide concentrations were calculated by measuring the […] and A280 absorbance of each peptide.

[2] = biological target: purified recombinant ADIPOR1 (A88) (UniProt Q96A54); assay: SPR, immobilised ADIPOR1
[3] = biological target: T1, purified recombinant ADIPOR1 (A88); assay: SPR, ADIPOR1 amine-coupled to CM5 chip, peptide injected
Procedure: as §1
With reference to FIGS. 3 and 4, surface plasmon resonance (SPR) experiments were performed in the present invention to measure the dissociation constant between the agonist peptide and the adiponectin receptor, particularly adiponectin receptor 1 (ADIPOR1). First, an expressed and purified adiponectin receptor ADIPOR1 was immobilized and its dissociation constant from candidate peptides was measured over a total of 4 rounds.

Row | Binder | Kd [1] [µM] | Kd [3] [µM] | further results
1 | NIPGLWYFAY (3rd round synthetic peptide; also called peptide 3-3) [3-3] | 30.7 | – | –
2 | H-[dN]IP[Nva]LY[dS]FA[dS]-NH2 (SMILES CCC[C@H](NC(=O)[C@@H]1CCCN1C(=O)[C@@H](NC(=O)[C@H](N)CC(N)=O)[C@@H](C)CC)C(=O)N[C@@H](CC(C)C)C(=O)N[C@@H](Cc1ccc(O)cc1)C(=O)N[C@H](CO)C(=O)N[C@@H](Cc1ccccc1)C(=O)N[C@@H](C)C(=O)N[C@H](CO)C(N)=O) [reference peptide ADP355] | – | – | Kd [2]: > 100 µM
3 | WYFAYHPNIPGLWYF (Synthetic 4th round agonist peptide) [peptide 4-3] | – | 6 to 10 | –
4 | FYFAYHPNIPGLFYF (Synthetic 4th round agonist peptide) [peptide 4-4] | – | 2 to 4.3 | –

More lines, main results first:

Row | Kd [1] [µM] | Kd [3] [µM] | Binder | further results
5 | 23.2 | – | NIPGLFYFAY (3rd round synthetic peptide; also called peptide 3-4) [3-4] | –
6 | – | ≤ 16 | YYFAYHPNIPGLYYF (Synthetic 3rd round agonist peptide designed for the adiponectin receptor) [peptide 3-1] | –
